Laboratory results published in the supplement of paper PMC5998384.

How the values were obtained:
[1] = test system: HeLa Kyoto; experiment: solubility change mitosis vs G1/S (difference of NP-40 vs SDS log2 ratios) (log2 ratio difference); higher = more soluble in mitosis
[2] = test system: HeLa Kyoto; experiment: melting temperature (median over replicates), in situ; higher = more thermally stable
[3] = test system: HeLa Kyoto; experiment: solubility in G1/S (NP-40 vs SDS abundance) (log2 ratio); higher = more soluble; settings: cell cycle stage: G1/S
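Wherever melting temperature (median over replicates), in situ is given: HeLa Kyoto cells synchronized by double thymidine or nocodazole block, proteins quantified by TMT10plex mass spectrometry, three independent biological replicates.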
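Wherever solubility change mitosis vs G1/S (difference of NP-40 vs SDS log2 ratios) is given: synchronized HeLa Kyoto cells (double thymidine block for G1/S, nocodazole release for mitosis), protein amounts in NP-40 versus SDS lysates quantified by mass spectrometry, three biological replicates.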
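Wherever solubility in G1/S (NP-40 vs SDS abundance) is given: HeLa Kyoto cells arrested at G1/S by double thymidine block, proteins quantified by TMT10plex mass spectrometry in mild NP-40 versus SDS extracts, three biological replicates.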

| Sequence | solubility change mitosis (log2) [1] | melting temperature ([2]; cell cycle stage: G1/S) [°C] | melting temperature ([2]; cell cycle stage: mitosis) [°C] | solubility in G1/S (log2) [3] |
| --- | --- | --- | --- | --- |
| MASRRKSTTPCMVLASEQDPDLELISDLDEGPPVLTPVENTRAESISSDEEVHESVDSDNQQNKKVEGGYECKYCTFQTPDLNMFTFHVDSEHPNVVLNSSYVCVECNFLTKRYDALSEHNLKYHPGEENFKLTMVKRNNQTIFEQTINDLTFDGSFVKEENAEQAESTEVSSSGISISKTPIMKMMKNKVENKRIAVHHNSVEDVPEEKENEIKPDREEIVENPSSSASESNTSTSIVNRIHPSTASTVVTPAAVLPGLAQVITAVSAQQNSNLIPKVLIPVNSIPTYNAALDNNPLLLNTYNKFPYPTMSEITVLSAQAKYTEEQIKIWFSAQRLKHGVSWTPEEVEEARRKQFNGTVHTVPQTITVIPTHISTGSNGLPSILQTCQIVGQPGLVLTQVAGTNTLPVTAPIALTVAGVPSQNNIQKSQVPAAQPTAETKPATAAVPTSQSVKHETALVNPDSFGIRAKKTKEQLAELKVSYLKNQFPHDSEIIRLMKITGLTKGEIKKWFSDTRYNQRNSKSNQCLHLNNDSSTTIIIDSSDETTESPTVGTAQPKQSWNPFPDFTPQKFKEKTAEQLRVLQASFLNSSVLTDEELNRLRAQTKLTRREIDAWFTEKKKSKALKEEKMEIDESNAGSSKEEAGETSPADESGAPKSGSTGKICKKTPEQLHMLKSAFVRTQWPSPEEYDKLAKESGLARTDIVSWFGDTRYAWKNGNLKWYYYYQSANSSSMNGLSSLRKRGRGRPKGRGRGRPRGRPRGSKRINNWDRGPSLIKFKTGTAILKDYYLKHKFLNEQDLDELVNKSHMGYEQVREWFAERQRRSELGIELFEENEEEDEVIDDQEEDEEETDDSDTWEPPRHVKRKLSKSDD [ZHX1] | -0.162 | 48.3 | 48.9 | 0.0738 |
| MASYYEILDVPRSASADDIKKAYRRKALQWHPDKNPDNKEFAEKKFKEVAEAYEVLSDKHKREIYDRYGREGLTGTGTGPSRAEAGSGGPGFTFTFRSPEEVFREFFGSGDPFAELFDDLGPFSELQNRGSRHSGPFFTFSSSFPGHSDFSSSSFSFSPGAGAFRSVSTSTTFVQGRRITTRRIMENGQERVEVEEDGQLKSVTINGVPDDLALGLELSRREQQPSVTSRSGGTQVQQTPASCPLDSDLSEDEDLQLAMAYSLSEMEAAGKKPAGGREAQHRRQGRPKAQHQDPGLGGTQEGARGEATKRSPSPEEKASRCLIL [DNAJB2] | 0.274 | 50.2 | 50.5 | 0.0895 |
| MATQAHSLSYAGCNFLRQRLVLSTLSGRPVKIRKIRARDDNPGLRDFEASFIRLLDKITNGSRIEINQTGTTLYYQPGLLYGGSVEHDCSVLRGIGYYLESLLCLAPFMKHPLKIVLRGVTNDQVDPSVDVLKATALPLLKQFGIDGESFELKIVRRGMPPGGGGEVVFSCPVRKVLKPIQLTDPGKIKRIRGMAYSVRVSPQMANRIVDSARSILNKFIPDIYIYTDHMKGVNSGKSPGFGLSLVAETTSGTFLSAELASNPQGQGAAVLPEDLGRNCARLLLEEIYRGGCVDSTNQSLALLLMTLGQQDVSKVLLGPLSPYTIEFLRHLKSFFQIMFKIETKPCGEELKGGDKVLMTCVGIGFSNLSKTLK [RCL1] | 0.888 | 52.4 | 52.3 | -1.92 |
| MAVAIAAARVWRLNRGLSQAALLLLRQPGARGLARSHPPRQQQQFSSLDDKPQFPGASAEFIDKLEFIQPNVISGIPIYRVMDRQGQIINPSEDPHLPKEKVLKLYKSMTLLNTMDRILYESQRQGRISFYMTNYGEEGTHVGSAAALDNTDLVFGQYREAGVLMYRDYPLELFMAQCYGNISDLGKGRQMPVHYGCKERHFVTISSPLATQIPQAVGAAYAAKRANANRVVICYFGEGAASEGDAHAGFNFAATLECPIIFFCRNNGYAISTPTSEQYRGDGIAARGPGYGIMSIRVDGNDVFAVYNATKEARRRAVAENQPFLIEAMTYRIGHHSTSDDSSAYRSVDEVNYWDKQDHPISRLRHYLLSQGWWDEEQEKAWRKQSRRKVMEAFEQAERKPKPNPNLLFSDVYQEMPAQLRKQQESLARHLQTYGEHYPLDHFDK [BCKDHA] | -0.0598 | 52.2 | 52.2 | 0.0962 |
| MDDKAFTKELDQWVEQLNECKQLNENQVRTLCEKAKEILTKESNVQEVRCPVTVCGDVHGQFHDLMELFRIGGKSPDTNYLFMGDYVDRGYYSVETVTLLVALKVRYPERITILRGNHESRQITQVYGFYDECLRKYGNANVWKYFTDLFDYLPLTALVDGQIFCLHGGLSPSIDTLDHIRALDRLQEVPHEGPMCDLLWSDPDDRGGWGISPRGAGYTFGQDISETFNHANGLTLVSRAHQLVMEGYNWCHDRNVVTIFSAPNYCYRCGNQAAIMELDDTLKYSFLQFDPAPRRGEPHVTRRTPDYFL [PPP2CB] | -0.00731 | 45.7 | 54.8 | 0.0545 |
| MDEERALYIVRAGEAGAIERVLRDYSDKHRATFKFESTDEDKRKKLCEGIFKVLIKDIPTTCQVSCLEVLRILSRDKKVLVPVTTKENMQILLRLAKLNELDDSLEKVSEFPVIVESLKCLCNIVFNSQMAQQLSLELNLAAKLCNLLRKCKDRKFINDIKCFDLRLLFLLSLLHTDIRSQLRYELQGLPLLTQILESAFSIKWTDEYESAIDHNGPPLSPQETDCAIEALKALFNVTVDSWKVHKESDSHQFRVMAAVLRHCLLIVGPTEDKTEELHSNAVNLLSNVPVSCLDVLICPLTHEETAQEATTLDELPSNKTAEKETVLKNNTMVYNGMNMEAIHVLLNFMEKRIDKGSSYREGLTPVLSLLTECSRAHRNIRKFLKDQVLPPLRDVTNRPEVGSTVRNKLVRLMTHVDLGVKQIAAEFLFVLCKERVDSLLKYTGYGNAAGLLAARGLLAGGRGDNWYSEDEDTDTEEYKNAKPKEELLKPMGLKPDGTITPLEEALNQYSVIEETSSDTD [RIC8B] | -0.194 | 49.4 | 49.8 | -0.00976 |
| MDNRFATAFVIACVLSLISTIYMAASIGTDFWYEYRSPVQENSSDLNKSIWDEFISDEADEKTYNDALFRYNGTVGLWRRCITIPKNMHWYSPPERTESFDVVTKCVSFTLTEQFMEKFVDPGNHNSGIDLLRTYLWRCQFLLPFVSLGLMCFGALIGLCACICRSLYPTIATGILHLLAGLCTLGSVSCYVAGIELLHQKLELPDNVSGEFGWSFCLACVSAPLQFMASALFIWAAHTNRKEYTLMKAYRVA [CLDND1] | 0.186 |  | 58.6 | -0.395 |
| MDPLFQQTHKQVHEIQSCMGRLETADKQSVHIVENEIQASIDQIFSRLERLEILSSKEPPNKRQNARLRVDQLKYDVQHLQTALRNFQHRRHAREQQERQREELLSRTFTTNDSDTTIPMDESLQFNSSLQKVHNGMDDLILDGHNILDGLRTQRLTLKGTQKKILDIANMLGLSNTVMRLIEKRAFQDKYFMIGGMLLTCVVMFLVVQYLT [GOSR2] | 0.0667 | 51.8 | 51.4 | 0.00468 |
| MDTAEDPAWLQLLQKDSSPPGPRPTAFFCPQDGSLGAGSSAMRDYCPSQQKASPAPPRHTPDQSPGMESRHRSPSGAGEGASCSDGPRGSLACPSPTCFSPQESPSKETLEAHGASISGTPEATTSGKPEPVSSVKTEPKSSDDRNPMFLEKMDFKSSKQADSTSIGKEDPGSSRKADPMFTGKAEPEILGKGDPVAPGRMDPMTVRKEDLGSLGKVDPLCSSKTYTVSPRKEDPGSLRKVDPVSSDKVDPVFPRKEEPRYSGKEHPVSSEKVAPTSAEKVDLVLSGKRDPGPSGKADPMPLESMDSASTGKTEPGLLGKLIPGSSGKNGPVSSGTGAPGSLGRLDPTCLGMADPASVGNVETVPATKEDSRFLGKMDPASSGEGRPVSGHTDTTASAKTDLTSLKNVDPMSSGKVDPVSLGKMDPMCSGKPELLSPGQAERVSVGKAGTVSPGKEDPVSSRREDPISAGSRKTSSEKVNPESSGKTNPVSSGPGDPRSLGTAGPPSAVKAEPATGGKGDPLSSEKAGLVASGKAAPTASGKAEPLAVGKEDPVSKGKADAGPSGQGDSVSIGKVVSTPGKTVPVPSGKVDPVSLGKAEAIPEGKVGSLPLEKGSPVTTTKADPRASGKAQPQSGGKAETKLPGQEGAAAPGEAGAVCLKKETPQASEKVDPGSCRKAEPLASGKGEPVSLGKADSAPSRKTESPSLGKVVPLSLEKTKPSSSSRQLDRKALGSARSPEGARGSEGRVEPKAEPVSSTEASSLGQKDLEAAGAERSPCPEAAAPPPGPRTRDNFTKAPSWEASAPPPPREDAGTQAGAQACVSVAVSPMSPQDGAGGSAFSFQAAPRAPSPPSRRDAGLQVSLGAAETRSVATGPMTPQAAAPPAFPEVRVRPGSALAAAVAPPEPAEPVRDVSWDEKGMTWEVYGAAMEVEVLGMAIQKHLERQIEEHGRQGAPAPPPAARAGPGRSGSVRTAPPDGAAKRPPGLFRALLQSVRRPRCCSRAGPTAE [GPRIN1] | -0.114 | 54.4 | 53.5 | 0.2 |
